Experimental data: US20190153108A1 (AbbVie / Abbott, published 2019)
Residue numbers refer to the chain shown, from its start.

B1: AbK-TV (antibody, V domains shown)
VH: EVQLQESGPGLVKPSQTLSLTCTVSGYSISRDFAWNWIRQPPGKGLEWMGYISYNGNTRYQPSLKSRITISRDTSKNQFFLKLNSVTAADTATYYCVTASRGFPWWGQGTLVTVSS
VL: DIQMTQSPSSMSVSVGDRVTITCHSSQDITYNVGWLQQKPGKSFKGLIYHGSNLDHGVPSRFSGSGSGTDYTLTISSLQPEDFATYYCVQYDDFPWTFGGGTKLEIKR
modifications: synthon TV on reduced interchain Cys
B2: AbK-AAA (antibody, V domains shown)
VH: B1 VH
VL: B1 VL
modifications: synthon AAA on reduced interchain Cys
B3: AbK-AAD (antibody, V domains shown)
VH: B1 VH
VL: B1 VL
modifications: synthon AAD on reduced interchain Cys
B4: AbA-TV (antibody, V domains shown)
VH: B1 VH with W105Y
VL: B1 VL with T30N, Y31S, V33I, S52T, H56D, D92A, D93Q
modifications: synthon TV on reduced interchain Cys
B5: AbA-ZT (antibody, V domains shown)
VH: B1 VH with W105Y
VL: B1 VL with T30N, Y31S, V33I, S52T, H56D, D92A, D93Q
modifications: synthon ZT on reduced interchain Cys
B6: AbA-ZZ (antibody, V domains shown)
VH: B1 VH with W105Y
VL: B1 VL with T30N, Y31S, V33I, S52T, H56D, D92A, D93Q
modifications: synthon ZZ on reduced interchain Cys
B7: AbB-LB (antibody, V domains shown)
VH: B1 VH with R31N, N55K
VL: B1 VL with T30N, Y31S, V33I, S52T, H56D, D92A, D93Q
modifications: synthon LB on reduced interchain Cys
B8: AbB-WD (antibody, V domains shown)
VH: B1 VH with R31N, N55K
VL: B1 VL with T30N, Y31S, V33I, S52T, H56D, D92A, D93Q
modifications: synthon WD on reduced interchain Cys
B9: AbA-WD (antibody, V domains shown)
VH: B1 VH with W105Y
VL: B1 VL with T30N, Y31S, V33I, S52T, H56D, D92A, D93Q
modifications: synthon WD on reduced interchain Cys
B10: AbK-LB (antibody, V domains shown)
VH: B1 VH
VL: B1 VL
modifications: synthon LB on reduced interchain Cys
B11: AbG-LB (antibody, V domains shown)
VH: B1 VH with R31N, P41L, N55K, F103L, W105Y
VL: B1 VL with V33I, S52A, H56D, D93E
modifications: synthon LB on reduced interchain Cys
B12: AbA-LB (antibody, V domains shown)
VH: B1 VH with W105Y
VL: B1 VL with T30N, Y31S, V33I, S52T, H56D, D92A, D93Q
modifications: synthon LB on reduced interchain Cys
B13: AbK-YY (antibody, V domains shown)
VH: B1 VH
VL: B1 VL
modifications: synthon YY on reduced interchain Cys
B14: AbG-WD (antibody, V domains shown)
VH: B1 VH with R31N, P41L, N55K, F103L, W105Y
VL: B1 VL with V33I, S52A, H56D, D93E
modifications: synthon WD on reduced interchain Cys
B15: AbK-WD (antibody, V domains shown)
VH: B1 VH
VL: B1 VL
modifications: synthon WD on reduced interchain Cys

Molecular target: human Epidermal Growth Factor Receptor (huEGFR) over-expressed in mcl-1-/- mouse embryonic fibroblasts (human, UniProt P00533 25-1210)
Assay: cell-based or functional assay

| huEGFR^+ mcl-1^-/- MEF EC50 [µM] | Binder |
| --- | --- |
| 0.00015 | B1 |
| 0.0034 | B2 |
| 0.0004 | B3 |
| 0.003 | B4 |
| 0.104 | B5 |
| 0.186 | B6 |
| 0.031 | B7 |
| 0.023 | B8 |
| 0.304 | B9 |
| 0.017 | B10 |
| 0.024 | B11 |
| 0.027 | B12 |
| 0.047 | B13 |
| 0.0058 | B14 |
| 0.035 | B15 |
